# Data taken from paper PMC7222171 (Cellular and Molecular Immunology, 2020).
# B1: 8D6 double Cys to Ala mutant (C104A, C109A) (antibody, V domains shown)
# VH: QVQLVQSGSELKKPGASLKLSCKASGYTYITPAMNWVRQAPGHGLEWMGGINTNTGNPTYAQGFAGRFVFSWDTSVSTAYLHISSLKTEDTAVYYCADTRIFSARRGTAYGGFDVWGQGTMVTVSS
# VL: DIQMTQSPSSLSASVGDRITITCRASQSISNFLNWFQHRPGKAPKLLIYGATILQSGVPSRFSGSGSGTDFTLTISSLQPEDFATYYCQQSDSSTYIFGQGTKVEIK
# B2: AR3C double Cys mutant (double amino-acid substitution in the CX4C motif) (antibody, V domains shown)
# VH: VQLLEQSGAEVKKPGSSVKVSCETSGGTFDNYALNWVRQAPGQGLEWIGGVVPLFGTTRNAQKFQGRVTISDDKSTGTGHMELRSLRSEDTAVYYCVRSVTPRYAGGGFAYGEFDYWGQGTLVTVSS
# VL: EIELTQSPATLSVSPGERATLSCRASQSVSSNLAWYQQKPGQAPRLLIYGASTRATGIPARFSGSGSGTEFTLTVSRLEPEDSAVYFCQQYYRSPLTFGGGTKVEIK
# Molecular target: Con1 E2 soluble fragment, amino acids 384–661 (wild type) (Hepatitis C virus genotype 1b, Con1, UniProt Q9WMX2)
# Sequence (Q9WMX2 384-661): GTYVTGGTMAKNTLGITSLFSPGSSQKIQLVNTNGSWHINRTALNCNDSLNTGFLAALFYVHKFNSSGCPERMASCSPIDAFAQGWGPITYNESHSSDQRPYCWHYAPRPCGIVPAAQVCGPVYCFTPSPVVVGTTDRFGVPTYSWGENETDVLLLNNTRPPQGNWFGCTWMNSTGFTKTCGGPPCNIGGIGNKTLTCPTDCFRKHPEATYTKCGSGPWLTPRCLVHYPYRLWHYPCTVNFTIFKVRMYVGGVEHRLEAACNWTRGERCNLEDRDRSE
# Assay: ELISA
row,Binder,binding result
1,B1,binds
2,B2,binds
